{
  "source": "patent US20240228595A1",
  "about": "(YALE UNIVERSITY, published 2024)",
  "binders": {"B1": {"name": "CoV2-0213 (bispecific antibody, human IgG1, kappa)", "heavy 1": "not shown", "light 1": "DIQMTQSPSSLSASVGDRVTITCRASESVEYYGTSLMQWYQQKPGKAPKLLIYAASNVESGVPARFSGSGSGTDFTLTISSLQPEDFATYYCQQSRKVPWTFGQGTKVEIKRSSASTKGPSVFPLAPSSKSTSGGTAALGCLVKDYFPEPVTVSWNSGALTSGVHTFPAVLQSSGLYSLSSVVTVPSSSLGTQTYICNVNHKPSNTKVDKKVEPKSC", "heavy 2": "not shown", "light 2": "not shown"}, "B2": {"name": "MB.08 (antibody, V domains shown)", "VH": "QVQLQESGPGLVKPSETLSLTCTVSGGSISSYYWSWIRQPPGKGLEWIGYIYYSGSTNYNPSLKSRVTISVDTSKNQFSLKLSSVTAADTAVYYCARGLTGGDAFDIWGQGTMVTVSS", "VL": "not shown"}, "B3": {"name": "Clone 2 (antibody, V domains shown)", "VH": "EVQLQQSGPELVKPGASVKISCKASGYSFTGYSMNWMKQSPEKSLEWIGEINPSTGGTTDNQKFKAKATLTVDKSSSTAYMQLKSLTSEDSAVYYCARSRGDYWGQGTSVTVSS", "VL": "DIVLTQSPASLAVSLGQRATISCRASESVEYYGTSLMQWYQQKPGQPPKVLIYAASNVESGVPARFSGSGSGTDFSLNIHPVEEDDIAMYFCQQSRKVPWTFGGGTKLEIKR"}},
  "key": {"[1]": {"molecular_target": "SARS-COV-2 Omicron BA.1.1 spike on HIV-1 based pseudovirus (SARS-CoV-2 Omicron BA.1.1, UniProt P0DTC2 14-1273)", "assay": "cell-based or functional assay"}, "[2]": {"molecular_target": "SARS-COV-2 Omicron BA.2 spike on HIV-1 based pseudovirus (SARS-CoV-2 Omicron BA.2, UniProt P0DTC2 14-1273)", "assay": "cell-based or functional assay"}, "[3]": {"molecular_target": "SARS-COV-2 Omicron BA.1 spike on HIV-1 based pseudovirus (Example 3) (SARS-CoV-2 Omicron BA.1, UniProt P0DTC2 14-1273)", "assay": "cell-based or functional assay"}, "[4]": {"molecular_target": "T1, SARS-COV-2 Omicron RBD recombinant protein (Sino Biological 40592-V08H121) (SARS-CoV-2 Omicron BA.1, UniProt P0DTC2 319-541)"}, "[5]": {"molecular_target": "T1, SARS-COV-2 Omicron RBD recombinant …", "remark": "listed apart in the source"}, "[6]": {"molecular_target": "T1, SARS-COV-2 Omicron RBD recombinant …", "remark": "listed apart in the source"}, "[7]": {"molecular_target": "T1, SARS-COV-2 Omicron RBD recombinant …", "assay": "ELISA, SARS-CoV-2-Omicron BA.1 RBD coated, antibody titrated"}, "[8]": {"molecular_target": "T1, SARS-COV-2 Omicron RBD recombinant …", "remark": "listed apart in the source"}, "[9]": {"molecular_target": "T1, SARS-COV-2 Omicron RBD recombinant …", "remark": "listed apart in the source"}, "[10]": {"molecular_target": "T1, SARS-COV-2 Omicron RBD recombinant …", "assay": "BLI (Octet); by the text the format with mAb immobilised and soluble Omicron RBD"}, "[11]": {"molecular_target": "T1, SARS-COV-2 Omicron RBD recombinant …", "remark": "listed apart in the source"}, "[12]": {"molecular_target": "SARS-COV-2 Omicron (B.1.1.529) full length spike on HIV-1 based pseudovirus (Example 2) (SARS-CoV-2 Omicron, UniProt P0DTC2 14-1273)", "assay": "cell-based or functional assay"}},
  "note": "Where two headings read alike, the source gives them in different places.",
  "data": [
    {"binder": "B1", "values": [
      {"measurement": "pseudovirus neutralization, IC50", "setting": "[1]", "result": 0.062, "unit": "µg/mL"},
      {"measurement": "pseudovirus neutralization, IC50", "setting": "[2]", "result": 0.078, "unit": "µg/mL"},
      {"measurement": "pseudovirus neutralization, fold more effective than S309/Sotrovimab", "setting": "[2]", "result": "~78", "unit": "fold"},
      {"measurement": "pseudovirus neutralization, IC50", "setting": "[3]", "result": 0.044, "unit": "µg/mL"}
    ]},
    {"binder": "B2", "values": [
      {"measurement": "EC50 (read off the curve)", "setting": "[4]", "result": "~0.2", "unit": "µg/mL"},
      {"measurement": "EC50", "setting": "[5]", "result": 0.0122, "unit": "µg/mL"},
      {"measurement": "koff", "setting": "[6]", "result": 0.00536, "unit": "s⁻¹"},
      {"measurement": "kon", "setting": "[6]", "result": 418000, "unit": "M⁻¹ s⁻¹"},
      {"measurement": "EC50", "setting": "[7]", "result": 0.0014, "unit": "µg/mL"},
      {"measurement": "koff", "setting": "[8]", "result": "< 1e-07", "unit": "s⁻¹"},
      {"measurement": "kon", "setting": "[8]", "result": 172000, "unit": "M⁻¹ s⁻¹"},
      {"measurement": "koff", "setting": "[9]", "result": 0.00536, "unit": "s⁻¹"},
      {"measurement": "kon", "setting": "[9]", "result": 418000, "unit": "M⁻¹ s⁻¹"},
      {"measurement": "Kd", "setting": "[10]", "result": 7.16, "unit": "nM"},
      {"measurement": "Kd", "setting": "[11]", "result": "< 0.001", "unit": "nM"}
    ]},
    {"binder": "B3", "values": [
      {"measurement": "pseudovirus neutralization, IC50", "setting": "[12]", "result": 0.396, "unit": "µg/mL"}
    ]}
  ]
}
